Measurements reported in patent publication US20200018762.

Assays:
FLAG-tagged H2B = FLAG-tagged H2B (UniProt P62807)
[1] = biological target: FLAG-tagged Y37F mutant-H2B (UniProt P62807)
[2] = system: biotinylated H4-derived unphosphorylated peptide TVTAMDVVYALKRQGRT
[3] = system: biotinylated human histone H2B derived peptide KRSRKESYSVYVYKVL
[4] = system: H2B peptide spanning Tyr37 (Tyr37-H2B; SRKESYSVYVYK)
[5] = system: H2B peptide with a Tyr37-to-Phe mutation (SRKESFSVYVYK)
[6] = system: purified human H2A recombinant protein (NEB)
[7] = biological target: purified human H2B recombinant protein (NEB) (UniProt P62807)
[8] = biological target: purified human H3 recombinant protein (NEB) (UniProt P68431)
[9] = biological target: purified human H4 recombinant protein (NEB) (UniProt P62805)

recombinant GST-WEE1 protein (Invitrogen), sequence (chain, as listed by the source): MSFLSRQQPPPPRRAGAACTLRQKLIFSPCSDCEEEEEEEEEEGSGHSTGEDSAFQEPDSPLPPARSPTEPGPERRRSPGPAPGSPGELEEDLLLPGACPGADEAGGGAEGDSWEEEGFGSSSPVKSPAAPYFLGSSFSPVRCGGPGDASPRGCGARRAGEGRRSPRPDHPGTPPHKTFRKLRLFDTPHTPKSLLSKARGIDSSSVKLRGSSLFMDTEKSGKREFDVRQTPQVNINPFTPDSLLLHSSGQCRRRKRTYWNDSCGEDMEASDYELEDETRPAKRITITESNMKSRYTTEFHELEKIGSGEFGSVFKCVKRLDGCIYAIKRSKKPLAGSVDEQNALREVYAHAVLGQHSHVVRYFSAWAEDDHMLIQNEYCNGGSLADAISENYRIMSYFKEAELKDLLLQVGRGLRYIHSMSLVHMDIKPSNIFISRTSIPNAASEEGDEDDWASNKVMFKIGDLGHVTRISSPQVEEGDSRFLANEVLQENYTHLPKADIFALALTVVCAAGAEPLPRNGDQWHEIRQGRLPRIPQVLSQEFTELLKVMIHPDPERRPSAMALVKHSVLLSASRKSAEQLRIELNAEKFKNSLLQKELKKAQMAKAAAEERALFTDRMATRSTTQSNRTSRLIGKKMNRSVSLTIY
purified WEE1 protein (Examples 5 and 7), sequence (chain, as listed by the source): as above
Myc-tagged WEE1 (WT), sequence (chain, as listed by the source): as above

Myc-tagged WEE1 (WT)
coexpression in MEFs, immunoprecipitation with pTyr37-H2B antibodies, FLAG immunoblot (FLAG-tagged H2B): the WT-WEE1 specifically phosphorylated H2B
coexpression in MEFs, immunoprecipitation with pTyr37-H2B antibodies, FLAG immunoblot [1]: failed to phosphorylate Y37F mutant (FIG. 13G)

purified WEE1 protein (Examples 5 and 7)
in vitro kinase assay on immobilized peptide, ELISA with pY88-H4 antibodies [2]: Incubation of H4 peptide with WEE1 and Ack1 protein resulted in robust H4 Tyr88-phosphorylation
Peptide Immunosandwich Assay (kinase reaction on immobilized peptide, detection with pY37-H2B antibodies, OD 450 nm) [3]: Purified WEE1 exhibited robust H2B Tyr37-phosphorylation and a significant decrease in pY37-H2B levels was observed upon incubation with 5 uM of MK-1775 (FIG. 34)

recombinant GST-WEE1 protein (Invitrogen)
in vitro kinase reaction with peptide, dot blot with pTyr37-H2B antibody [4]: WEE1 phosphorylated H2B peptide
in vitro kinase reaction with peptide, dot blot with pTyr37-H2B antibody [5]: Y37F mutant peptide was not phosphorylated
in vitro kinase assay, immunoblot with pTyr37-H2B antibody [6]: WEE1 specifically phosphorylated H2B and failed to phosphorylate other three core histones, H2A, H3 and H4 (FIG. 13E)
in vitro kinase assay, immunoblot with pTyr37-H2B antibody [7]: When purified WEE1 and H2B were incubated, H2B was Tyr37-phosphorylated, however, WEE1 inhibitor abrogated H2B pTyr37-phosphorylation (FIG. 13D)
in vitro kinase assay, immunoblot with pTyr37-H2B antibody [8]: WEE1 specifically phosphorylated H2B and failed to phosphorylate other three core histones, H2A, H3 and H4 (FIG. 13E)
in vitro kinase assay, immunoblot with pTyr37-H2B antibody [9]: WEE1 specifically phosphorylated H2B and failed to phosphorylate other three core histones, H2A, H3 and H4 (FIG. 13E)
